# Laboratory results taken from the DeepSol protein solubility set.
# Assay: soluble on expression in E. coli; label from the status in PepcDB or PDB records
row,Sequence,soluble on expression in E. coli
1,SDMGTSALSKKPWWTLPQNFHAPMVFHMEEDQEELIFGHGDTYLRCIEVHSHTLIQLESWFTATGQTRVTVGPHRARQWLLHMFCCVGSQDSYHHARGLEMLERVRSQPLTNDDLVTSISVPPYTGDLSLAPRISGTVCLSVPQPSPYQVIGCSGFHLSSLYP,soluble
2,SEEDNRAPQLWRKTLTAPAPFADETNCQCQAPHEKLTIAQARLGTPADRPVRVYADGIFDLFHSGHARALMQAKTLFPNSYLLVGVCSDDLTHKFKGFTVMNEAERYEALRHCRYVDEVIRDAPWTLTPEFLEKHKIDFVAHDDIPYSSAGSDDVYKHIKEAGMFVPTQRTEGISTSDIITRIVRDYDVYARRNLQRGYTAKELNVSFINEKRYRFQNQVDKMKEKVKNVEERSKEFVNRVEEKSHDLIQKWEEKSREFIGNFLELFGPDGAWKQMFQERSSRMLQALSPKQSPVSSPTRSRSPSRSPSPTFSWLPLKTSPPSSPKAASASISSMSEGDEDEK,soluble
3,SEFVLKHTAFAHLREVGSFPCTLNPHEAESLALVGAMIDQVLELHPGAQRLHIGCDEVYYLGEGEASRRWLQQEQNSTGKLCLSHMRAVASGVKARRPSVTPLVWDDMLRDLPEDQLAASGVPQLVEPVLWDYTADLDVHGKVLLMQKYRRCGFPQLWAASAFKGATGPSQAVPPVEHHLRNHVQWLQVAGSGPTDSLQGIILTGWQRYDHYSVLCELLPAGVPSLAACLQLLLRGGFDEDVKAKVENLLGISSLEKTDPVREGAGSFPGSNILALVTQVSLHLRSSVDALLEGNRYVTGWFSPYHRQRKLIHPVMVQHIQPAALSLLAQWSTLVQELEAALQLAFYPDAVEEWLEENVHPSLQRLQALLQDLSEVSAPPLPPTSPGRDVAQDP,not soluble
4,SEKAVHSSTTSGPAVPGETTKTGTSIIDTAASAVQSFAPVNQIHQHLCAFHFYADDMARQVEAHHFCSHVNEEMRQCLIYDGPDANARLIGLEYIVSEKLFMTLPDEEKKLWHSHEWEVKGGFLFMPGVPGAIQRKDLDKVAKTYGKVFHFWQVDLGHELPIGLPNVMMAVTRDGQLFHEMIQEAEKRFGVSVEGERDSRAYMSGPELGIHPLANGGGKGMKLELREVDIKPVESVGSVFV,soluble
5,SEPQEERETQVAAWLKKIFGDHPIPQYEVNPRTTEILHHLSERNRVRDRDVYLVIEDLKQKASEYESEAKYLQDLLMESVNFSPANLSSTGSRYLNALVDSAVALETKDTSLASFIPAVNDLTSDLFRTKSKSEEIKIELEKLEKNLTATLVLEKCLQEDVKKAELHLSTERAKVDNRRQNMDFLKAKSEEFRFGIKAAEEQLSARGMDASLSHQSLVALSEKLARLKQQTIPLKKKLESYLDLMPNPSLAQVKIEEAKRELDSIEAELTRRVDMMEL,soluble
6,SEQIMSSQQVARRMMLDIGDKPQEHLVAIYLDTQNRIIQQKTVFIGGVRRSIAEPREILYYACHLMATSLIVVHNHPSGEAYPSRNDIDFTQKIKRSCDDLGICLLDHLIVGKSTYYSFREEREDFEL,not soluble
7,SGANISGGSPEFDRNDDVYSRKLRLVDLPENCVALIMTRLDPPEICRLARLNRMSRRASSADFIWESKLPANYRVIAHKVFDEITLTKLIKKDLYAKLSQPNLFDDGTKELWIDKNTGRLCLSISSKALRITGIDDRRYWSHIPTDESRFQSAAYVQQIWWFEVGGEFEIQFPSGTYSLFFRIQLGKTSKRLGRRICNSEHIHGWDIKPVRFQLATSDNQQAVSLCYLNNNPGSWSHYHVGDFKVTNPDVSTGIKFSMTQIDCTHTKGGLCIDSVLILPKECAKEVIGSQ,soluble
8,SGGGGKAWPTHVVCSDSGLEVLYQSCDPLQDFGFSVEKCSKQLKSNINIRFGIILREDIKELFLDLALMSQGSSVLNFSYPICEAALPKFSFCGRRKGEQIYYAGPVNNPEFTIPQGEYQVLLELYTEKRSTVACANATIMCS,soluble
9,SGKCYLSLHEHNSSANRGACAQICRRGYTVKDKDSGLELDIENQYIMSPKDLKTIHFINKMMDAGVRVFKIEGRARGPEYVYTVCRCYKEAIEAYCNGTYDEESIGRWDEQLATVFNRGFWDGYYLGQRLGEWTHRYGSGATRQKIYVGKGIKYFSRLGVAEFEIESGELHIGDEIVITGPTTGVIIQKVEEIRYELQTVEKATKGQRISIPVKEKVRPSDKLYRFDKRE,not soluble
10,SGQRPSLPMLATDERSTDKESPNEDREFVPCSSLDVRRIYPKGPLLVLPEKIYLYSEPTVKELLPFDVVINVAEEANDLRMQVPAVEYHHYRWEHDSQIALDLPSLTSIIHAATTKREKILIHSQCGLSRSATLIIAYIMKYHNLSLRHSYDLLKSRADKINPSIGLIFQLMEWEVALNAKT,soluble
11,SGRPVAELLRKIHTSKALLDMLKRLGKEPLNPGALLSQLKQAVFAVQQSSPLIQEGIKYLEEHLHEVHFGEKVVCHCDVNHNNWLLSEDNQLYLIDWDGAMIADPAMDLGPLLYHYVEKPAWESWLSMYGIELTESLRLRMAWYVLSETITFIAWHKAKGNDKE,not soluble
12,SGVPVYICSSLKPDALAEAAEHQADGSFFVPRAKGLRTQKQWLAFYSESRGSVYVDEGAEHALSEQGKSLLMSGIAGIEGHFSRMDTVTVYSKATKQPLGKGRVLFGSAAAEDLLKSRKAKGVFIHRDDWISITPEIRLLLTEF,not soluble
13,SHMLEDPCTSKKVRAARTLLAKNLSFNITEDELKEVFEDALEIRLVSQDGKSKGIAYIEFKSEADAEKNLEEKQGAEIDGRSVSLYYTGEKGGTRG,soluble
14,SHMQPFVYMAAPARIVFSAGSSADVAEEIRRLGLSRALVLSTPQQKGDAEALASRLGRLAAGVFSEAAMHTPVEVTKTAVEAYRAAGADCVVSLGGGSTTGLGKAIALRTDAAQIVIPTTYAGSEVTPILGQTENGVKTTMRGPEILPEVVIYDAELTLGLPVAISMTSGLNAMAHAAEALYARDRNPIASMMAVEGLRAMIEALPVVRQAPHDIGARETALYGAWLCGTVLGAVGMSLHHKLCHTLGGSLDLPHAETHAVLLPHTIAYVEEAAPNLLAPLAALVGGRAGAGLFDFAARLGAPSSLAALGVGADDLDPMAELATANPYWCPRPIEKTAIRDLLQRAFEGARPA,soluble
15,SHSLGWIFGMPCNQRSSTKASCEEVFDPTEESYLNIETSL,soluble
16,SHVETGPNGEQIRKHAGQKRTYKAISESYAFLPREAVTRFLMSCSECQKRMHLNPDGTDHKDNGKPPTLVTSMIDYNMPITMAYMKHMKLQLLNSQQDEDESSIESDEFDMSDSTRMSAVNSDLSSNLEERMQSPQNLHGQQDDDSAAESFNGNETLGHSSIASGGTHSREMGDSNSDGKTGLEQDEQPLNLSDSPLSAQLTSEYRIDDHNSNGKNKYKNLLISDLKMEREARENGSKSPAHSYSSYDSGKNESVDRGAEDLSLNRGDEDEDDHEDHDDSEKVNETDGVEAERLKAFNDESAPADKQCKPEATQATYSTSAVPGSQDVLYINGNGTYSYHSYRGLGGGLLNLNDASSSGPTDLSMKRQLATSSGSSSSSNSRPQLSPTEINAVRQLVAGYRESAAFLLRSADELENLILQQN,soluble
17,SITDILSAEDIAAALQECQDPDTFEPQKFFQTSGLSKMSASQVKDIFRFIDNDQSGYLDGDELKYFLQKFQSDARELTESETKSLMDAADNDGDGKIGADEFQEMVHS,soluble
18,SKRFVIGIGGVTNGGKTTLAKSLQKHLPNCSVISQDDFFKPESEIDIDENGFLQYDVLEALNMEKMMSAVSCWMENPGSSAGPAALESAQGVPILIIEGFLLFNYKPLDTIWNRSYFLTVPYEECKRRRSTRVYEPPDPPGYFDGHVWPMYLKHRQEMSSITWDIVYLDGTRSEEDLFSQVYEDVKQELEKQNGL,soluble
19,SKRVVFVTVGTTSFDALVKAVVSQNVKDELQKRGFTHLLIQMGRGIFFPTKCDGADGSLVVDYFTFSSSIADYIRSASLVISHAGSGSIFETLKLGKPLIVVVNEDLMDNHQCELAEALEERKHLYYTRPHSLHQTLTKMELGSLVQYTPGDGTPVARIIDRFLG,soluble
20,SLDRGEQGLLKTEPVAEEGEDAVTMLSAPEALTEEEQEELRRELTKVEEEIQTLSQVLAAKEKHLAELKRKLGISSLQEFKQNIAKGWQDVTATNAYKKTSETLSQAGQKASAAFSSVGSVITKKLEDVKNSPTFKSFEEKVENLKSKVGGAKPAGGDFGEVLNSTANATSTMTTEPPPEQMTES,soluble
